In publication PMC6107761, “Preferential Binding of Mg^2+ Over Ca^2+ to CIB2 Triggers an Allosteric Switch Impaired in Usher Syndrome Type 1J” (Frontiers in Molecular Neuroscience, 2018):
Numbering of substitutions follows the chain as printed. Names and notes keep the numbering of the source.

B1: human wild type calcium and integrin binding protein 2 (CIB2) (natural protein, UniProt O75838-1 1-187, looked up)
chain: MGNKQTIFTEEQLDNYQDCTFFNKKDILKLHSRFYELAPNLVPMDYRKSPIVHVPMSLIIQMPELRENPFKERIVAAFSEDGEGNLTFNDFVDMFSVLCESAPRELKANYAFKIYDFNTDNFICKEDLELTLARLTKSELDEEEVVLVCDKVIEEADLDGDGKLGFADFEDMIAKAPDFLSTFHIRI
notes: 21.6 kDa; complete cDNA; Non-covalent dimer by SEC, Ferguson plots and DLS under reducing conditions; Tag removed by TEV protease; also called WT CIB2; WT; source: E. coli BL21 DE3, purified (His-trap, TEV cleavage, second His-trap flow-through); not shown: 6xHis, N-terminal, cleaved
B2: human E64D CIB2 (natural protein, UniProt O75838-1 1-187, looked up)
chain: B1 chain with E64D
notes: point mutation E64D made by site-directed mutagenesis on the complete cDNA; variant associated with Usher syndrome type 1J / non-syndromic hearing loss; After elution treated as the WT protein (TEV cleavage of the His tag); Dimer by SEC and Ferguson plots; also called p.E64D; USH1J-related variant; not shown: 6xHis, N-terminal, cleaved
B3: peptide of the membrane proximal segment of the cytoplasmic domain of α7B integrin, residues 1101-1116 (peptide)
peptide: Ac-LLLWKMGFFKRAKHPE-NH2
notes: Integrin α7B, membrane proximal segment of the cytoplasmic domain, residues 1101-1116 of Uniprot entry Q13683; source: synthetic peptide (GenScript)

Assays:
[1] = target: B3; test: other fluorescence titration; Trp emission spectra of 4 μM peptide alone and with fixed concentrations of WT CIB2 (8 μM for α7B_M; 2, 4 and 8 μM for Scrb); 20 mM Hepes, 150 mM KCl, 1 mM DTT pH 7.5, 37°C, 1 mM Mg2+ and 1 mM Ca2+; details: both partners purified
[2] = target: B3; test: other fluorescence titration; 4 μM α7B_M peptide titrated with increasing CIB2; blue shift of the peptide's Trp emission peak (excitation 295 nm); 20 mM Hepes, 150 mM KCl, 1 mM DTT pH 7.5, 37°C, 1 mM Mg2+ and 1 mM Ca2+; apparent Kd; details: both partners purified
[3] = target: the molecule itself; test: SEC; analytical SEC, Superose 12 10/300GL; 20 mM Tris pH 7.5, 150 mM KCl, 1 mM DTT with 3 mM EGTA or 2 mM EGTA + 3 mM Mg2+ or 3 mM Mg2+ + 2 mM Ca2+; WT 100 μM, E64D 70 μM; MW from a calibration plot
[4] = target: B1; test: other fluorescence titration; 4 μM α7B_M peptide titrated with increasing CIB2; blue shift of the peptide's Trp emission peak (excitation 295 nm); 20 mM Hepes, 150 mM KCl, 1 mM DTT pH 7.5, 37°C, 1 mM Mg2+ and 1 mM Ca2+; apparent Kd; details: both partners purified
human E64D CIB2 = target: B2; test: as above; details: both partners purified

Row | Binder | fold increase in the maximal fluorescence emission of the peptide [1] [fold] | stoichiometry N [2] [CIB2 chains per peptide] | stoichiometry N [3] | Kd [4] [µM] | Kd (human E64D CIB2) [µM]
1 | B1 | 1.7 | 2 | – | – | –
2 | B2 | – | 2 | 2 | – | –
3 | B3 | – | – | – | 4.99 | 3.1
